Paper PMC12102759

B1: PAIP1 peptide 126-141 (Polyadenylate-binding protein-interacting protein 1), 16-mer library wild type / PABPC1 PABC (PABPC1 PABC domain, residues 544-623) (parent)
chain 1: SKLSVNAPEFYPSGYS
chain 2: PLTASMLASAPPQEQKQMLGERLFPLIQAMHPTLAGKITGMLLEIDNSELLHMLESPESLRSKVDEAVAVLQAHQAKEAA

Variants of: B1
Assay: proteomic peptide phage display deep mutational scan (ProP-PD DMS): M13 P8 16-mer library selected against immobilised GST-tagged bait for four days (rounds), NGS of the eluted pools per day and pseudo-replica
Conditions: with PABPC1 PABC (PABPC1 PABC domain, residues 544-623); bait immobilised on MaxiSorp plates (10 µg), library pre-cleared on GST, 2 h binding at 4 °C, five washes; one round per day, days 1-4; value from days 2 and 3; keep out of graded; scale: average fractional NGS count over selection days 2 and 3

Compared with chain 1 SKLSVNAPDFYPSGYS [chain 1 E9D], chain 1 SKLSVNAPFFYPSGYS [chain 1 E9F] is lower in screen value: 0.000746 for the first, 0.00034 for the second.

Going from chain 1 SKLSVNAPHFYPSGYS [chain 1 E9H] to chain 1 SKLSVNAPIFYPSGYS [chain 1 E9I], the screen value falls from 0.00439 to 8.24e-05.

Going from chain 1 SKLSVNAPKFYPSGYS [chain 1 E9K] to chain 1 SKLSVNAPLFYPSGYS [chain 1 E9L], the screen value rises from 0.000266 to 0.000721.

Compared with chain 1 SKLSVNAPMFYPSGYS [chain 1 E9M], chain 1 SKLSVNAPNFYPSGYS [chain 1 E9N] is lower in screen value: 0.00247 for the first, 0.00191 for the second.

First: chain 1 SKLSVNAPPFYPSGYS [chain 1 E9P]
Second: chain 1 SKLSVNAPQFYPSGYS [chain 1 E9Q]
The screen value of the first is higher: 0.000543 for the first, 0.000332 for the second.

Compared with chain 1 SKLSVNAPRFYPSGYS [chain 1 E9R], chain 1 SKLSVNAPSFYPSGYS [chain 1 E9S] is higher in screen value: 4.17e-05 for the first, 0.00129 for the second.

Compared with chain 1 SKLSVNAPTFYPSGYS [chain 1 E9T], chain 1 SKLSVNAPVFYPSGYS [chain 1 E9V] is lower in screen value: 0.00117 for the first, 0.000182 for the second.

Compared with chain 1 SKLSVNAPYFYPSGYS [chain 1 E9Y], chain 1 SKLSVNAPEDYPSGYS [chain 1 F10D] is lower in screen value: 0.000173 for the first, 0 for the second.

chain 1 SKLSVNAPEQYPSGYS [chain 1 F10Q] and chain 1 SKLSVNAPEVYPSGYS [chain 1 F10V] are the same in screen value: 0 for the first, 0 for the second.

Compared with chain 1 SKLSVNAPEWYPSGYS [chain 1 F10W], chain 1 SKLSVNAPEYYPSGYS [chain 1 F10Y] is lower in screen value: 0.0171 for the first, 0.00206 for the second.

Going from chain 1 SKLSVNAPEFYPSAYS [chain 1 G14A] to chain 1 SKLSVNAPEFYPSEYS [chain 1 G14E], the screen value falls from 0.00104 to 0.000246.

Compared with chain 1 SKLSVNAPEFYPSIYS [chain 1 G14I], chain 1 SKLSVNAPEFYPSKYS [chain 1 G14K] is lower in screen value: 0.000195 for the first, 0.000153 for the second.

Going from chain 1 SKLSVNAPEFYPSMYS [chain 1 G14M] to chain 1 SKLSVNAPEFYPSPYS [chain 1 G14P], the screen value rises from 0.000578 to 0.00116.

First: chain 1 SKLSVNAPEFYPSQYS [chain 1 G14Q]
Second: chain 1 SKLSVNAPEFYPSRYS [chain 1 G14R]
The screen value of the first is lower: 9.29e-05 for the first, 0.000231 for the second.

Compared with chain 1 SKLSVNAPEFYPSSYS [chain 1 G14S], chain 1 SKLSVNAPEFYPSTYS [chain 1 G14T] is lower in screen value: 0.000279 for the first, 0.000205 for the second.

Compared with chain 1 SKLSVNAPEFYPSVYS [chain 1 G14V], chain 1 SKLSVNAPEFYPSYYS [chain 1 G14Y] is higher in screen value: 0.000565 for the first, 0.00125 for the second.

First: chain 1 SALSVNAPEFYPSGYS [chain 1 K2A]
Second: chain 1 SDLSVNAPEFYPSGYS [chain 1 K2D]
The screen value of the first is higher: 0.000319 for the first, 0.000197 for the second.

Going from chain 1 SFLSVNAPEFYPSGYS [chain 1 K2F] to chain 1 SGLSVNAPEFYPSGYS [chain 1 K2G], the screen value rises from 0.000245 to 0.000321.

Compared with chain 1 SHLSVNAPEFYPSGYS [chain 1 K2H], chain 1 SILSVNAPEFYPSGYS [chain 1 K2I] is lower in screen value: 4.17e-05 for the first, 0 for the second.

Compared with chain 1 SNLSVNAPEFYPSGYS [chain 1 K2N], chain 1 SPLSVNAPEFYPSGYS [chain 1 K2P] is higher in screen value: 0.000212 for the first, 0.00022 for the second.

First: chain 1 SVLSVNAPEFYPSGYS [chain 1 K2V]
Second: chain 1 SWLSVNAPEFYPSGYS [chain 1 K2W]
The screen value of the first is higher: 0.000896 for the first, 0.000491 for the second.

First: chain 1 SYLSVNAPEFYPSGYS [chain 1 K2Y]
Second: chain 1 SKFSVNAPEFYPSGYS [chain 1 L3F]
The screen value of the first is lower: 0.000158 for the first, 0.000815 for the second.

Going from chain 1 SKISVNAPEFYPSGYS [chain 1 L3I] to chain 1 SKPSVNAPEFYPSGYS [chain 1 L3P], the screen value falls from 0.00043 to 9.03e-05.

Going from chain 1 SKVSVNAPEFYPSGYS [chain 1 L3V] to chain 1 SKWSVNAPEFYPSGYS [chain 1 L3W], the screen value rises from 0.000373 to 0.000852.

Compared with chain 1 SKLSVAAPEFYPSGYS [chain 1 N6A], chain 1 SKLSVEAPEFYPSGYS [chain 1 N6E] is lower in screen value: 0.000611 for the first, 0 for the second.

Compared with chain 1 SKLSVFAPEFYPSGYS [chain 1 N6F], chain 1 SKLSVGAPEFYPSGYS [chain 1 N6G] is lower in screen value: 0.000327 for the first, 0.000194 for the second.

Going from chain 1 SKLSVHAPEFYPSGYS [chain 1 N6H] to chain 1 SKLSVIAPEFYPSGYS [chain 1 N6I], the screen value falls from 0.000862 to 0.000614.

First: chain 1 SKLSVLAPEFYPSGYS [chain 1 N6L]
Second: chain 1 SKLSVMAPEFYPSGYS [chain 1 N6M]
The screen value of the first is higher: 0.00023 for the first, 0.000149 for the second.

First: chain 1 SKLSVPAPEFYPSGYS [chain 1 N6P]
Second: chain 1 SKLSVRAPEFYPSGYS [chain 1 N6R]
The screen value of the first is lower: 0 for the first, 0.000467 for the second.

Going from chain 1 SKLSVTAPEFYPSGYS [chain 1 N6T] to chain 1 SKLSVVAPEFYPSGYS [chain 1 N6V], the screen value falls from 0.000385 to 0.000215.

Going from chain 1 SKLSVWAPEFYPSGYS [chain 1 N6W] to chain 1 SKLSVYAPEFYPSGYS [chain 1 N6Y], the screen value falls from 0.000917 to 0.000705.

Going from chain 1 SKLSVNAAEFYPSGYS [chain 1 P8A] to chain 1 SKLSVNADEFYPSGYS [chain 1 P8D], the screen value rises from 0.000105 to 0.000406.

Compared with chain 1 SKLSVNAFEFYPSGYS [chain 1 P8F], chain 1 SKLSVNAGEFYPSGYS [chain 1 P8G] is higher in screen value: 0.000185 for the first, 0.000696 for the second.

Going from chain 1 SKLSVNAIEFYPSGYS [chain 1 P8I] to chain 1 SKLSVNAKEFYPSGYS [chain 1 P8K], the screen value falls from 0.000615 to 8.32e-05.

First: chain 1 SKLSVNALEFYPSGYS [chain 1 P8L]
Second: chain 1 SKLSVNAMEFYPSGYS [chain 1 P8M]
The screen value of the first is higher: 0.000643 for the first, 0.00039 for the second.

Compared with chain 1 SKLSVNANEFYPSGYS [chain 1 P8N], chain 1 SKLSVNAQEFYPSGYS [chain 1 P8Q] is lower in screen value: 0.0134 for the first, 0.000383 for the second.

Compared with chain 1 SKLSVNAREFYPSGYS [chain 1 P8R], chain 1 SKLSVNASEFYPSGYS [chain 1 P8S] is lower in screen value: 0.000635 for the first, 0.000241 for the second.

First: chain 1 SKLSVNAVEFYPSGYS [chain 1 P8V]
Second: chain 1 SKLSVNAWEFYPSGYS [chain 1 P8W]
The screen value of the first is lower: 0.00064 for the first, 0.000763 for the second.

First: chain 1 SKLSVNAYEFYPSGYS [chain 1 P8Y]
Second: chain 1 SKLSVNAPEFYASGYS [chain 1 P12A]
The screen value of the first is higher: 0.0021 for the first, 0.00198 for the second.

Going from chain 1 SKLSVNAPEFYESGYS [chain 1 P12E] to chain 1 SKLSVNAPEFYFSGYS [chain 1 P12F], the screen value rises from 0.000484 to 0.00121.

Going from chain 1 SKLSVNAPEFYHSGYS [chain 1 P12H] to chain 1 SKLSVNAPEFYISGYS [chain 1 P12I], the screen value rises from 0.00057 to 0.000623.

Going from chain 1 SKLSVNAPEFYLSGYS [chain 1 P12L] to chain 1 SKLSVNAPEFYMSGYS [chain 1 P12M], the screen value falls from 0.00211 to 0.000643.

Going from chain 1 SKLSVNAPEFYNSGYS [chain 1 P12N] to chain 1 SKLSVNAPEFYQSGYS [chain 1 P12Q], the screen value rises from 8.81e-05 to 0.000152.

Compared with chain 1 SKLSVNAPEFYRSGYS [chain 1 P12R], chain 1 SKLSVNAPEFYSSGYS [chain 1 P12S] is higher in screen value: 4.76e-05 for the first, 0.00133 for the second.

Going from chain 1 SKLSVNAPEFYTSGYS [chain 1 P12T] to chain 1 SKLSVNAPEFYVSGYS [chain 1 P12V], the screen value falls from 0.000222 to 5.13e-05.

Going from chain 1 SKLSVNAPEFYYSGYS [chain 1 P12Y] to chain 1 AKLSVNAPEFYPSGYS [chain 1 S1A], the screen value falls from 0.00157 to 0.0012.

First: chain 1 FKLSVNAPEFYPSGYS [chain 1 S1F]
Second: chain 1 HKLSVNAPEFYPSGYS [chain 1 S1H]
The screen value of the first is lower: 0 for the first, 0.000214 for the second.
